Experiment [1] addresses Rab6B^Q72L, GTPase domain (residues 8-176), constitutively active mutant (mouse, UniProt P61294 8-176, Q72L). Description: ITC.
For experiment [2], the target named is Rab6B^Q72L L11E, GTPase domain (mouse, UniProt P61294 8-176, Q72L | L11E). In words: ITC. A general note: ITC needs no label: the signal is the heat of the interaction.

Drawing on publication PMC10267580 (2023), this text covers Kd for 2 molecules.

The Kd is the concentration at which binding is half-saturated. A high value points to weaker binding.

Sequence of Rab6B^Q72L L11E, GTPase domain (P61294 8-176 L11E/Q72L): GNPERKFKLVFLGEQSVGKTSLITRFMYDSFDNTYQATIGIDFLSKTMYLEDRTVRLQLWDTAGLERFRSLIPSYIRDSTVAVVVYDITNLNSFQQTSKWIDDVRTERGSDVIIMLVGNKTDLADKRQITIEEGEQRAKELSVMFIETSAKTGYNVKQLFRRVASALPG
Sequence of Rab6B^Q72L, GTPase domain (residues 8-176), constitutively active mutant (P61294 8-176 Q72L): as the sequence (P61294 8-176 L11E/Q72L) above, with E4L counted along it

B1: ELKS1_RBD S868A (domain or fragment)
chain: RKHLEEVLEMKQEALLAAIAEKDANIALLELSSSKKKTQEEVAALKREKDRLVQQLKQQTQNRMKLMADNYEDD
As to B1, the Kd in experiment [1] is 26 µM.

B2: ELKS1_RBD, Rab-binding domain of ELKS1 (residues 849-922) (domain or fragment)
chain: RKHLEEVLEMKQEALLAAISEKDANIALLELSSSKKKTQEEVAALKREKDRLVQQLKQQTQNRMKLMADNYEDD
For the molecule B2, the Kd in experiment [2] is greater than 50 µM.
